In patent US20070286806A1, “Methods and Compositions for Modulating a Steroid Receptor” (Mount Sinai Hospital, priority 2004, published 2007):

How the values were obtained:
PR protein = PR protein levels on over-expression of PSF in 293T cells; assay type: cell-based; conditions: over-expression in 293T cells
ERβ = target: T1, ERβ (Homo sapiens, UniProt Q92731); experiment: ERβ transactivation, 3xERE luciferase reporter in SHM cells; assay type: cell-based; conditions: 3xERE promoter
T1 construct: expressed in transfected cells; host or cells: SHM (Syrian hamster myocyte) cells
T1 sequence (Q92731 whole entry, species assumed): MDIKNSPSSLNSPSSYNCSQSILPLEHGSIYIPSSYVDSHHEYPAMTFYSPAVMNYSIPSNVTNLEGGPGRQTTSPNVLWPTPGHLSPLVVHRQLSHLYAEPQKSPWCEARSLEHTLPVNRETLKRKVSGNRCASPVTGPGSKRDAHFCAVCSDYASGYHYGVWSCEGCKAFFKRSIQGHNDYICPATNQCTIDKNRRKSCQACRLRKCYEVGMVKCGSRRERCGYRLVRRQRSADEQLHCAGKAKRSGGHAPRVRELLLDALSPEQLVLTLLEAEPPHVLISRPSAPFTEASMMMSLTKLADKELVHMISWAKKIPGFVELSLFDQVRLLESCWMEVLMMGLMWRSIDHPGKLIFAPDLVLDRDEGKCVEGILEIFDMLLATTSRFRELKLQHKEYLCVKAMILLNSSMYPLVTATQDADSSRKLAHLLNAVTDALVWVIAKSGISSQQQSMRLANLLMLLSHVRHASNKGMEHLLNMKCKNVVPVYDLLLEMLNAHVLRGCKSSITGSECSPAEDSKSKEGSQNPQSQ
Protocol: FIG. 4. PSF inhibit transactivation of PR but not estrogen receptor (ER). (A) SHM cells were transient cotransfected with PRA or PRB expression vectors with or without increasing dose (0.05, 0.1 and 0.2 μg) of His-PSF, together with 3×PRE (upper) or MMTV (lower) luciferase reporter vector. Four hours after transfection, culture medium was replaced with fresh DMEM containing 10 nM progesterone and the incubation continued for at least 30 hours. (B) SHM cells were transiently cotransfected with ERα or ERβ expression vector with (0.2 μg) or without His-PSF, together with 3×ERE luciferase reporter vector. Four hours after transfection, culture medium was replaced with fresh DMEM with (solid bar) or without (empty bar) 10 nM estrodial and incubation continued for at least 30 hours. Luciferase activity was measured and normalized by β-galatosidase activity. […]
For immunoprecipitation of the endogenous PR and PSF, T47D cells cultured in 150 mm dishes were lysed in 800 μl NETN buffer containing 150 mM NaCl plus protease inhibitor cocktail. […] Gels were treated with Enhancer (NEN, Boston, US) dried and analyzed by autoradiography. • Cell culture and transient transfection: SHM cells and 293T cells were maintained in DMEM plus 5% FCS (Sigma) as described before (22). […] Luciferase activity was determined by using the luciferin reagent (Promega) according to manufacture's protocol. […]

B1: polypyrimidine tract binding protein-associated splicing factor (protein)
chain: MSRDRFRSRGGGGGGFHRRGGGGGRGGLHDFRSPPPGMGLNQNRGPMGPGPGQSGPKPPIPPPPPHQQQQQPPPQQPPPQQPPPHQPPPHPQPHQQQQPPPPPQDSSKPVVAQGPGPAPGVGSAPPASSSAPPATPPTSGAPPGSGPGPTPTPPPAVTSAPPGAPPPTPPSSGVPTTPPQAGGPPPPPAAVPGPGPGPKQGPGPGGPKGGKMPGGPKPGGGPGLSTPGGHPKPPHRGGGEPRGGRQHHPPYHQQHHQGPPPGGPGGRSEEKISDSEGFKANLSLLRRPGEKTYTQRCRLFVGNLPADITEDEFKRLFAKYGEPGEVFINKGKGFGFIKLESRALAEIAKAELDDTPMRGRQLRVRFATHAAALSVRNLSPYVSNELLEEAFSQFGPIERAVVIVDDRGRSTGKGIVEFASKPAARKAFERCSEGVFLLTTTPRPVIVEPLEQLDDEDGLPEKLAQKNPMYQKERETPPRFAQHGTFEYEYSQRWKSLDEMEKQQREQVEKNMKDAKDKLESEMEDAYHEHQANLLRQDLMRRQEELRRMEELHNQEMQKRKEMQLRQEEERRRREEEMMIRQREMEEQMRRQREESYSRMGYMDPRERDMRMGGGGAMNMGDPYGSGGQKFPPLGGGGGIGYEANPGVPPATMSGSMMGSDMRTERFGQGGAGPVGGQGPRGMGPGTPAGYGRGREEYEGPNKKPRF
notes: expressed from transfected His-PSF vector or in vitro translated
PR protein levels (PR protein): reduced PR protein levels | inhibitory effects on ERβ (ERβ): not observed
